Values quoted from earlier work in paper PMC7248566.

Target: Fibrinogen beta (Fgβ) (Homo sapiens) (UniProt P02675)

SdrG (from UniProt Q9KI13)
Kd: 0.35 µM
